The values that follow come from patent publication US6303357A, “L-α-glycerophosphate oxidase gene, recombinant DNA, and method for producing modified L-α-glycerophosphate oxidase gene” (priority 2000, dated 2001).

Holding throughout (assay type): biochemical, Enterococcus faecium
Series [1] relates to O=P(O)(O)OCC(O)CO. As to the kind of experiment: Km value of GPO (wild type control, E. coli DH5/pGPO97). Conditions: other: wild type GPO, 37° C., pH 7.0 activity assay. How it is done:
(§1) According to the invention, method for the measurement GPO activity is as follows unless otherwise noted.
(§2) 300 mM Sodium (±)-1-glycerophosphate n-hydrate
(§3) A 1.0 ml portion of a reaction solution having the above composition is put into a test tube and subjected to 5 minutes of preliminary incubation at 37° C., and then 20 μl of an enzyme solution is added thereto to carry out 5 minutes of the reaction at 37° C. After the reaction, 2.0 ml of 0.5% SDS solution is added to terminate the reaction, and calorimetric determination is carried out at a wavelength of 600 nm. An activity capable of forming 1 μmole of hydrogen peroxide within 1 minute was defined as 1 unit (U). [formula]
(§4) The resulting cells were collected by centrifugation, washed with 10 mM Tris-HCl buffer (pH 8.0) containing 0.1 M sodium chloride and 1 mM EDTA and then suspended in a solution prepared by adding 1 mg/ml of lysozyme to 50 mM potassium phosphate buffer (pH 7.0) containing 10 mM EDTA and 0.1% Triton X-100, subsequently carrying out 2 hours of cell lysis at 4° C. After the cell lysis, this was subjected to ultrasonic disintegration and then centrifuged, and the supernatant was used as the enzyme solution to measure its enzyme activity, heat resistance and Km value.
(§5) In addition, improvement of two or more properties was found by a combination of these mutations. […]

Series [2] has as its system O=P(O)(O)OCC(O)CO. Put plainly: Km value of modified GPO Ala 225/Gly 420. Conditions: other: Ala 225, Gly 420, 37° C., pH 7.0 activity assay. How it is done:
as §1, §2, §3, §4, §5

Series [3] deals with O=P(O)(O)OCC(O)CO. Put plainly: Km value of modified GPO Phe 130/Ala 225. Conditions: other: Phe 130, Ala 225, 37° C., pH 7.0 activity assay. How it is done:
as §1, §2, §3, §4, §5

As for “Enterococcus faecium No. 7044 L-α-glycerophosphate oxidase (GPO), wild type, Sequence No. 1 (Enterococcus faecium DO)”, the Km in series [1] amounted to 23.2 mM. As for “Enterococcus faecium No. 7044 L-α-glycerophosphate oxidase (GPO) variant Ala 225/Gly 420 (Enterococcus faecium DO; D212G/D427G/S17A)”, the Michaelis constant (Km) in series [2] is 28.8 mM.

With “Enterococcus faecium No. 7044 L-α-glycerophosphate oxidase (GPO) variant Phe 130/Ala 225 (Enterococcus faecium DO; L137F/L267F/S362A)”, the Km in series [3] came out at 4.6 mM.

What is called Km is the concentration of substrate that gives half-maximal velocity.
